Target: mouse-TfR Fab (8D3) fused to SpyCatcher
Assay: cell-based or functional assay

For “soluble SpyTag peptide (peptide; modification not given; by the resolver: SpyCatcher is fused to one Fab chain and forms an isopeptide bond with SpyTag, whether soluble or on the capsid)”, the cross conjugation signal (luciferase, transduction assay on mTfR+HEK293) (log reduction) was 2.
